Results taken from patent US20140105889A1 (published 2014).

T1: human FcγRIIa type R (human, UniProt P12318 36-217)
T1 construct: also called FcgRIIaR; FcγRIIa(R)
T1 chain: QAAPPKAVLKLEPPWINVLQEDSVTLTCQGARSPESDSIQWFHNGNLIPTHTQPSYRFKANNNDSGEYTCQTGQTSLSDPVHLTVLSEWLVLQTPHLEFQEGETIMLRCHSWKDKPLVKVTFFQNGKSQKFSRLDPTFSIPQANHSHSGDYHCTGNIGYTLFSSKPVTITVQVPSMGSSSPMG

T2: human FcγRIIa type H (human, UniProt P12318 36-217)
T2 construct: also called FcgRIIaH; FcγRIIa(H)
T2 sequence: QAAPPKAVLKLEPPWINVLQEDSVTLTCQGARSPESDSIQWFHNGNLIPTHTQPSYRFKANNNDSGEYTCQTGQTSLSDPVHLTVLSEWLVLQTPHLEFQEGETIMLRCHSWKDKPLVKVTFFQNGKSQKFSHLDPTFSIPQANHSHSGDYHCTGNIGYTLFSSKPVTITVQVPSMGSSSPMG

T3: human FcγRIIb (human, UniProt P31994 43-217)
T3 construct: also called FcgRIIb; FcγIIB
T3 sequence: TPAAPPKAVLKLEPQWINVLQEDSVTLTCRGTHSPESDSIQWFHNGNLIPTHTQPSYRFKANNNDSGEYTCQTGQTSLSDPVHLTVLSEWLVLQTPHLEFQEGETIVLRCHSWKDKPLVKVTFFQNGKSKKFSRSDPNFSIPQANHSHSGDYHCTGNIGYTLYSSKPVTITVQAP


Experiments:
Assay in all cases: SPR (Biacore), FcγR over captured antibody; binding amount / that of IL6R-BF648/IL6R-L x100
human FcγRIa = target: T4, human FcγRIa (human, UniProt P12314 16-292, limits assumed)
T4 construct: also called FcgRIa; CD64
Description: (§1) According to the following method, relative binding activities were calculated for the results of analyzing interactions with the respective FcγRs.

human FcγRIIa type R = target: T1, human FcγRIIa type R
Description: as §1

human FcγRIIa type H = target: T2, human FcγRIIa type H
Description: as §1

human FcγRIIb = target: T3, human FcγRIIb
Description: as §1

human FcγRIIIa type V = target: T5, human FcγRIIIa type V (human, UniProt P08637 17-208, limits assumed)
T5 construct: Allotype V158 was used; also called FcgRIIIaV; FcγRIIIa(V)
T5 sequence (P08637 other isoform, or with tags, fused parts or gaps limits assumed): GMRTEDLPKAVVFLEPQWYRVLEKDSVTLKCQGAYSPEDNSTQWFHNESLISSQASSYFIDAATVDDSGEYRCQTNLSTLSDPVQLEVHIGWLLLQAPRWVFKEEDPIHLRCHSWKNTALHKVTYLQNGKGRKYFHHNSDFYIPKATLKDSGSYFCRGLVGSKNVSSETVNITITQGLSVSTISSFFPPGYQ
Description: as §1

T4 sequence (P12314 16-292 limits assumed): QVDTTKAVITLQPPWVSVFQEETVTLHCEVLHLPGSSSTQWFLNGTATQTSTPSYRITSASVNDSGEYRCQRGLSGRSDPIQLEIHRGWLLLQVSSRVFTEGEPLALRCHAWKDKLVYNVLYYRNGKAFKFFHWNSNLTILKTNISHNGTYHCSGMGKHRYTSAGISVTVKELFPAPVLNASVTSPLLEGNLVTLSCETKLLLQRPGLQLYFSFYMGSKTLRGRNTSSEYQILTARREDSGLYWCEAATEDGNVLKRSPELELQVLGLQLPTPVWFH

Binder	relative binding activity (human FcγRIa)	relative binding activity (human FcγRIIa type R)	relative binding activity (human FcγRIIa type H)	relative binding activity (human FcγRIIb)	relative binding activity (human FcγRIIIa type V)
IL6R-BP082/IL6R-L (antibody, human IgG1) heavy: QVQLQESGPGLVKPSETLSLTCAVSGHSISHDHAWSWVRQPPGEGLEWIGFISYSGITNYNPSLQGRVTISRDNSKNTLYLQMNSLRAEDTAVYYCARSLARTTAMDYWGEGTLVTVSSASTKGPSVFPLAPSSKSTSGGTAALGCLVKDYFPEPVTVSWNSGALTSGVHTFPAVLQSSGLYSLSSVVTVPSSSLGTQTYICNVNHKPSNTKVDKKVEPKSCDKTHTCPPCPAPDLLGGDSVFLFPPKPKDTLMISRTPEVTCVVVDVSHEDPEVKFNWYVDGVEVHNAKTKPREEQYNSTYRVVSVLTVLHQDWLNGKEYKCKVSNKALPKPIEKTISKAKGQPREPQVYTLPPSRDELTKNQVSLTCLVKGFYPSDIAVEWESNGQPENNYKTTPPVLDSDGSFFLYSKLTVDKSRWQQGNVFSCSVMHEALHNHYTQESLSLSP light: DIQMTQSPSSLSASVGDRVTITCRASQDISSYLNWYQQKPGKAPKLLIYYTSRLHSGVPSRFSGSGSGTDFTFTISSLQPEDIATYYCQQGNTLPYTFGQGTKVEIK	74 % of IL6R-BF648/IL6R-L	126 % of IL6R-BF648/IL6R-L	106 % of IL6R-BF648/IL6R-L	136 % of IL6R-BF648/IL6R-L	87 % of IL6R-BF648/IL6R-L
IL6R-BP131/IL6R-L (antibody, human IgG1) heavy: QVQLQESGPGLVKPSETLSLTCAVSGHSISHDHAWSWVRQPPGEGLEWIGFISYSGITNYNPSLQGRVTISRDNSKNTLYLQMNSLRAEDTAVYYCARSLARTTAMDYWGEGTLVTVSSASTKGPSVFPLAPSSKSTSGGTAALGCLVKDYFPEPVTVSWNSGALTSGVHTFPAVLQSSGLYSLSSVVTVPSSSLGTQTYICNVNHKPSNTKVDKKVEPKSCDKTHTCPPCPAPDLLGDDSVFLFPPKPKDTLMISRTPEVTCVVVDVSHEDPEVKFNWYVDGVEVHNAKTKPREEQYNSTYRVVSVLTVLHQDWLNGKEYKCKVSNKALPKPIEKTISKAKGQPREPQVYTLPPSRDELTKNQVSLTCLVKGFYPSDIAVEWESNGQPENNYKTTPPVLDSDGSFFLYSKLTVDKSRWQQGNVFSCSVMHEALHNHYTQESLSLSP light: DIQMTQSPSSLSASVGDRVTITCRASQDISSYLNWYQQKPGKAPKLLIYYTSRLHSGVPSRFSGSGSGTDFTFTISSLQPEDIATYYCQQGNTLPYTFGQGTKVEIK	33 % of IL6R-BF648/IL6R-L	364 % of IL6R-BF648/IL6R-L	253 % of IL6R-BF648/IL6R-L		118 % of IL6R-BF648/IL6R-L
IL6R-BP146/IL6R-L (antibody, human IgG1) heavy: QVQLQESGPGLVKPSETLSLTCAVSGHSISHDHAWSWVRQPPGEGLEWIGFISYSGITNYNPSLQGRVTISRDNSKNTLYLQMNSLRAEDTAVYYCARSLARTTAMDYWGEGTLVTVSSASTKGPSVFPLAPSSKSTSGGTAALGCLVKDYFPEPVTVSWNSGALTSGVHTFPAVLQSSGLYSLSSVVTVPSSSLGTQTYICNVNHKPSNTKVDKKVEPKSCDKTHTCPPCPAPEYLGDDSVFLFPPKPKDTLMISRTPEVTCVVVDVSHEDPEVKFNWYVDGVEVHNAKTKPREEQYNSTYRVVSVLTVLHQDWLNGKEYKCKVSNAALPAPIEKTISKAKGQPREPQVYTLPPSRDELTKNQVSLTCLVKGFYPSDIAVEWESNGQPENNYKTTPPVLDSDGSFFLYSKLTVDKSRWQQGNVFSCSVMHEALHNHYTQESLSLSP light: DIQMTQSPSSLSASVGDRVTITCRASQDISSYLNWYQQKPGKAPKLLIYYTSRLHSGVPSRFSGSGSGTDFTFTISSLQPEDIATYYCQQGNTLPYTFGQGTKVEIK		445 % of IL6R-BF648/IL6R-L	203 % of IL6R-BF648/IL6R-L	156 % of IL6R-BF648/IL6R-L	
IL6R-BP151/IL6R-L (antibody, human IgG1) heavy: QVQLQESGPGLVKPSETLSLTCAVSGHSISHDHAWSWVRQPPGEGLEWIGFISYSGITNYNPSLQGRVTISRDNSKNTLYLQMNSLRAEDTAVYYCARSLARTTAMDYWGEGTLVTVSSASTKGPSVFPLAPSSKSTSGGTAALGCLVKDYFPEPVTVSWNSGALTSGVHTFPAVLQSSGLYSLSSVVTVPSSSLGTQTYICNVNHKPSNTKVDKKVEPKSCDKTHTCPPCPAPDYLGDDSVFLFPPKPKDTLMISRTPEVTCVVVDVSHEDPEVKFNWYVDGVEVHNAKTKPREEQYNSTYRVVSVLTVLHQDWLNGKEYKCKVSNAALPRPIEKTISKAKGQPREPQVYTLPPSRDELTKNQVSLTCLVKGFYPSDIAVEWESNGQPENNYKTTPPVLDSDGSFFLYSKLTVDKSRWQQGNVFSCSVMHEALHNHYTQESLSLSP light: DIQMTQSPSSLSASVGDRVTITCRASQDISSYLNWYQQKPGKAPKLLIYYTSRLHSGVPSRFSGSGSGTDFTFTISSLQPEDIATYYCQQGNTLPYTFGQGTKVEIK	39 % of IL6R-BF648/IL6R-L	705 % of IL6R-BF648/IL6R-L	621 % of IL6R-BF648/IL6R-L		221 % of IL6R-BF648/IL6R-L

Second part, the binder after the results:

relative binding activity (human FcγRIa)	relative binding activity (human FcγRIIa type R)	relative binding activity (human FcγRIIa type H)	relative binding activity (human FcγRIIb)	relative binding activity (human FcγRIIIa type V)	Binder
34 % of IL6R-BF648/IL6R-L	638 % of IL6R-BF648/IL6R-L	548 % of IL6R-BF648/IL6R-L	178 % of IL6R-BF648/IL6R-L		IL6R-BP152/IL6R-L (antibody, human IgG1) heavy: QVQLQESGPGLVKPSETLSLTCAVSGHSISHDHAWSWVRQPPGEGLEWIGFISYSGITNYNPSLQGRVTISRDNSKNTLYLQMNSLRAEDTAVYYCARSLARTTAMDYWGEGTLVTVSSASTKGPSVFPLAPSSKSTSGGTAALGCLVKDYFPEPVTVSWNSGALTSGVHTFPAVLQSSGLYSLSSVVTVPSSSLGTQTYICNVNHKPSNTKVDKKVEPKSCDKTHTCPPCPAPDYLGDDSVFLFPPKPKDTLMISRTPEVTCVVVDVSHEDPEVKFNWYVDGVEVHNAKTKPREEQDNSTYRVVSVLTVLHQDWLNGKEYKCKVSNAALPRPIEKTISKAKGQPREPQVYTLPPSRDELTKNQVSLTCLVKGFYPSDIAVEWESNGQPENNYKTTPPVLDSDGSFFLYSKLTVDKSRWQQGNVFSCSVMHEALHNHYTQESLSLSP light: DIQMTQSPSSLSASVGDRVTITCRASQDISSYLNWYQQKPGKAPKLLIYYTSRLHSGVPSRFSGSGSGTDFTFTISSLQPEDIATYYCQQGNTLPYTFGQGTKVEIK
102 % of IL6R-BF648/IL6R-L	201 % of IL6R-BF648/IL6R-L	128 % of IL6R-BF648/IL6R-L	147 % of IL6R-BF648/IL6R-L		IL6R-BP176/IL6R-L (antibody, human IgG1) heavy: QVQLQESGPGLVKPSETLSLTCAVSGHSISHDHAWSWVRQPPGEGLEWIGFISYSGITNYNPSLQGRVTISRDNSKNTLYLQMNSLRAEDTAVYYCARSLARTTAMDYWGEGTLVTVSSASTKGPSVFPLAPSSKSTSGGTAALGCLVKDYFPEPVTVSWNSGALTSGVHTFPAVLQSSGLYSLSSVVTVPSSSLGTQTYICNVNHKPSNTKVDKKVEPKSCDKTHTCPPCPAPDLLGGDSVFLFPPKPKDTLMISRTPEVTCVVVDVSHEDPEVKFNWYVDGVEVHNAKTKPREEQYNSTYRVVSVLTVLHQDWLNGKEYKCKVSNDALPKPIEKTISKAKGQPREPQVYTLPPSRDELTKNQVSLTCLVKGFYPSDIAVEWESNGQPENNYKTTPPVLDSDGSFFLYSKLTVDKSRWQQGNVFSCSVMHEALHNHYTQESLSLSP light: DIQMTQSPSSLSASVGDRVTITCRASQDISSYLNWYQQKPGKAPKLLIYYTSRLHSGVPSRFSGSGSGTDFTFTISSLQPEDIATYYCQQGNTLPYTFGQGTKVEIK
51 % of IL6R-BF648/IL6R-L	653 % of IL6R-BF648/IL6R-L	259 % of IL6R-BF648/IL6R-L	179 % of IL6R-BF648/IL6R-L		IL6R-BP178/IL6R-L (antibody, human IgG1) heavy: QVQLQESGPGLVKPSETLSLTCAVSGHSISHDHAWSWVRQPPGEGLEWIGFISYSGITNYNPSLQGRVTISRDNSKNTLYLQMNSLRAEDTAVYYCARSLARTTAMDYWGEGTLVTVSSASTKGPSVFPLAPSSKSTSGGTAALGCLVKDYFPEPVTVSWNSGALTSGVHTFPAVLQSSGLYSLSSVVTVPSSSLGTQTYICNVNHKPSNTKVDKKVEPKSCDKTHTCPPCPAPDLLGDDSVFLFPPKPKDTLMISRTPEVTCVVVDVSHEDGEVKFNWYVDGVEVHNAKTKPREEQYNSTYRVVSVLTVLHQDWLNGKEYKCKVSNKALPKPIEKTISKAKGQPREPQVYTLPPSRDELTKNQVSLTCLVKGFYPSDIAVEWESNGQPENNYKTTPPVLDSDGSFFLYSKLTVDKSRWQQGNVFSCSVMHEALHNHYTQESLSLSP light: DIQMTQSPSSLSASVGDRVTITCRASQDISSYLNWYQQKPGKAPKLLIYYTSRLHSGVPSRFSGSGSGTDFTFTISSLQPEDIATYYCQQGNTLPYTFGQGTKVEIK
108 % of IL6R-BF648/IL6R-L	362 % of IL6R-BF648/IL6R-L	150 % of IL6R-BF648/IL6R-L		122 % of IL6R-BF648/IL6R-L	IL6R-BP181/IL6R-L (antibody, human IgG1) heavy: QVQLQESGPGLVKPSETLSLTCAVSGHSISHDHAWSWVRQPPGEGLEWIGFISYSGITNYNPSLQGRVTISRDNSKNTLYLQMNSLRAEDTAVYYCARSLARTTAMDYWGEGTLVTVSSASTKGPSVFPLAPSSKSTSGGTAALGCLVKDYFPEPVTVSWNSGALTSGVHTFPAVLQSSGLYSLSSVVTVPSSSLGTQTYICNVNHKPSNTKVDKKVEPKSCDKTHTCPPCPAPDLLGGDSVFLFPPKPKDTLMISRTPEVTCVVVDVSHEDGEVKFNWYVDGVEVHNAKTKPREEQYNSTYRVVSVLTVLHQDWLNGKEYKCKVSNAALPKPIEKTISKAKGQPREPQVYTLPPSRDELTKNQVSLTCLVKGFYPSDIAVEWESNGQPENNYKTTPPVLDSDGSFFLYSKLTVDKSRWQQGNVFSCSVMHEALHNHYTQESLSLSP light: DIQMTQSPSSLSASVGDRVTITCRASQDISSYLNWYQQKPGKAPKLLIYYTSRLHSGVPSRFSGSGSGTDFTFTISSLQPEDIATYYCQQGNTLPYTFGQGTKVEIK
